From the RNAGym collection of RNA variant scans (doi:10.1073/pnas.2313332121)

B1: TPR t1 (parent)
chain: GACCAAUCUGCCCUCAGAGCUCGAGAACAUCUUCGGAUGCAGAGGAGGCAGGCUUCGGUGGCGCGAUAGCGCCAACGUCCUCAACCUCCAAUGCAUCCCACCACAUGAUGAUGCCUGAAGAGCCUUGGUUUUUUG

Variants of: B1
Assay: polymerase ribozyme fitness, log enrichment relative to wild type (log ratio); higher = more active; in vitro selection for triplet polymerase activity
In short: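 Mutant libraries were PCR-built and transcribed for each subunit of a heterodimeric triplet polymerase ribozyme and selected for one round in triplicate at −7 °C, frozen, before gel excision of extended constructs and streptavidin-bead capture. Input and output libraries were Illumina-sequenced, keeping genotypes with ≥10 input reads and ≥1 read per output. Fitness is a logarithmic ratio of genotype to wild-type enrichment, in base 2, using inverse-variance-weighted replicate averages.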

| Variant | polymerase ribozyme fitness (log ratio) |
| --- | --- |
| A37C G69A | -3.26 |
| G10A G52C | -0.471 |
| C79U C82A U87A G110C | -4.6 |
| C12A C49U G69U U109A U116A C123G | -5.67 |
| G10A A95C | -0.471 |
| U59A G93C C114U | -2.6 |
| C53A C70U G117A A121C | -1.08 |
| C89G G127A | -1.9 |
| U32A A43C G63C | -6.22 |
| G60A G93U U112C G113U | -5.49 |
| C8G A18U U21A C73U G93A | -3.79 |
| C11A A46C G63A U131G | -2.39 |
| A27U G39C G120U | -2.78 |
| C62U C114G A121C G135A | -1.63 |
| U55C G69C C76U C89A A121U U125G | -4.56 |
| G47C C56U | -1.01 |
| A46G C53U | -1.01 |
| C76A A95U C115U | -4.9 |
| A50G G57U C79A C115A | -1.84 |
| C11A C49A U59A A91G | -2.95 |
| U54C G93C G117A | -2.18 |
| C73G C80U C123G | -0.835 |
| C3A U7C G113C | -2.78 |
| G93U C123U | 0.528 |

| Variant | polymerase ribozyme fitness (log ratio) |
| --- | --- |
| C12A G57U G71U | -0.629 |
| G19C G42U C62U C76G U92G | -4.02 |
| A27C G120A | -3 |
| U9A C13A G51U C94G | -4.04 |
| A2C C12A A66U C104U | -3.52 |
| A18C C40G | -4.09 |
| C3U C102U G117U | -4.61 |
| C53A C88U C104U | 0.665 |
| G51U U54C U59G | -3.68 |
| C22U C82A U87G | -5.14 |
| C12A G69A A100C A121C | -3.75 |
| C86A A105C | -2.57 |
| A37U G110C A121U | -3.77 |
| A6G C8G C11U C22U C79U | -3.56 |
| G60U C102U U116A | -4.78 |
| A26U G135A | -3.67 |
| G45U G57C G69U G110A U125A | -0.972 |
| G47U C64U U67C | -7.12 |
| C70G C99A G113A | -6.35 |
| A6U G60A C82G C101U G120A G128U | -2.36 |
| G110C G122U | -4.38 |
| C8G G48A G120C U125C | 1.03 |
| G71U C124G U126C | 2.04 |
| U32C C70G A74C | -5.82 |

| Variant | polymerase ribozyme fitness (log ratio) |
| --- | --- |
| G45A C89U U133A | -1.52 |
| A5C C73G A84U | -2.25 |
| C62U U132C | -0.257 |
| C97U A121U | 1.5 |
| A43U G61U G93U | -1.76 |
| C11G A18U G44A G69U | 0.139 |
| A6G U96A C102A U129A | -5.24 |
| C62A G110U | -2.92 |
| A6G C64U C73U G117C | -2.37 |
| G52C G127U | -1.33 |
| U32C G42C C123G | 1.74 |
| U7C C31A A119G U133A | -6.12 |
| G45A U55C C62A C89G | -3.49 |
| C20A U125A | -3.22 |
| C34U A74U | -4.36 |
| C11U U55A C80A C86G C124G | -4.52 |
| A50C G58C C98U C123G | 0.72 |
| C4A C114G | -4.25 |
| C3A G110C U112A G117A U132C | -6.59 |
| C4G G44U U96A | -4.42 |
| G48A C101U | -2.29 |
| C114A U131C | -1.66 |
| A111C U133C | 1.26 |
| C72G A121C | 1.48 |

| Variant | polymerase ribozyme fitness (log ratio) |
| --- | --- |
| C40G G45U U106A U112A | -0.392 |
| C8G C28G C97A U106A C115U U133G | -5.09 |
| G36U A41U | -2.77 |
| U54G C94A C114A | -3.33 |
| G45U A66C | -2.87 |
| C62A U87C | -0.344 |
| C13A G19C G69U G110U U112C | -5.05 |
| C15A G57A C94U | -2.78 |
| G69A A121U | -0.353 |
| G42A C56A U112A G120A | -4.77 |
| A41G G63U G117C | -6.01 |
| C15A A74G G113A | -4.02 |
| U59C U106G | -1.74 |
| C56U U78G U106G G110A U129A U131C | -4.97 |
| C3A C8A C40G G61U A100C | -2.95 |
| C3U G17C G61C G117U | -5.52 |
| G39U G57A C80A | -2.91 |
| G113A U131A | -0.84 |
| C3G C73U A90C | -3.32 |
| G47A U87G | -0.336 |
| C13U G39U G44U | -1.24 |
| C64U C98U | -0.89 |
| A26G G36U C72G | -4.71 |
| G17U U21A U112C C123A | -3.07 |

| Variant | polymerase ribozyme fitness (log ratio) |
| --- | --- |
| A2C G61A C82G | -2.65 |
| C22A A29G C40G G61U C72A A83U U131A | -5.02 |
| A2G C8G C70G | -2.83 |
| G117A A119G | 1.29 |
| U7G C12G A37G | 0.709 |
| A5U C31U U112A | -3.97 |
| U96A C99A U106G | -5.31 |
| C11A C72U | -1.58 |
| C70A U112C | 0.318 |
| A26G A43U G69U U112A | -0.179 |
| U54C C115U | -0.738 |
| C8G C12G U55G G61U | 0.571 |
| G45A C49G G60U U106C U112A | -0.821 |
| C11A G93C | -1.54 |
| G19U U96G C114A | 1.12 |
| C40G A41U C70U C124G | -3.14 |
| G45U C70A C115A G128U | -3.65 |
| C8U U14G G45A G69A | -2.72 |
| C11A G69C A121G | -0.0496 |
| A46C C89U | -0.611 |
| G47A G51C G63U C115A G120U U131G | -4.36 |
| U109A C123U | -3.85 |
| C56G C94U | -0.644 |
| A6U C70A | -0.922 |

| Variant | polymerase ribozyme fitness (log ratio) |
| --- | --- |
| A16G G71C C124A U130A | 0.62 |
| C13U A50G G52A G69A G77U | -2.68 |
| C11U U112C | 1.46 |
| A16U G60A C62U U112C | -0.401 |
| C62U C104U A108C | -6 |
| A26G C94G | -3.05 |
| C3U G71U U125G | -1.58 |
| C8A C12A C85U | -0.437 |
| C34U G122A | -4.6 |
| U21G C102A | -2.91 |
| G63C G107A | -4.87 |
| C53G G60C C98A C102A | -6.1 |
| U7A C101A | -1.43 |
| A29U C101A G110A A118G A121G | -4.96 |
| C72A U131A G135U | 0.0704 |
| G47A U55A G60U A90U U92A | -2.67 |
| G19A C62U G93U | -4.23 |
| A41U G69U G120C | 0.831 |
| C49U C73A C114U | -2.58 |
| G44C C49U C88A C124U | -1.53 |
| A2C C13G G93U G120U | -2.23 |
| C13U A16U C56U U129G | -0.207 |
| A43C G48C G71A | -4.5 |
| A105U G110U | -6.12 |

| Variant | polymerase ribozyme fitness (log ratio) |
| --- | --- |
| C20G G71A C72A C80U G110C G117C | -6.92 |
| U78C A84G G128A | -3.53 |
| U87G A103C | -5.65 |
| A43C C124A U125G | -0.534 |
| C8A C22U G57C A75U C97U C102G | -6.66 |
| U55C C62G | -1.97 |
| G63A A74U A95U | -3.67 |
| A43C U131C | -1.94 |
| A5U C15G C72G A119G A121U | 0.915 |
| G44A G63A A84U | -2.6 |
| G117C U131G | -4.4 |
| U9C G19U U81C U130C | -3.09 |
| C49U G120C C123G | -0.212 |
| G42U U87C G128U U133A | -3.75 |
| A103U A121G C123U | -2.56 |
| A37G G60C G117A | -1.95 |
| A5C C94U G110A | -2.08 |
| G42U C73A | -1.55 |
| A43U A111G | -0.575 |
| G48A U130G | -1.37 |
| C12A A24G A41C A43C A46G C53G | -4.67 |
| A41G U55G A75G U87A A108G | -4.14 |
| A43U C62G | -3.88 |
